From the supplement of paper PMC9170038

System: K4 kissing-loop RNA reporter
Assay: apparent KD of K4 kissing-loop reporter; higher = weaker reporter binding
Settings: Eterna round: R107
Protocol: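 RNA-MaP round R107: designed RNA switches with theophylline, tryptophan, arginine or FMN aptamers are transcribed on-chip within common flanks. They are titrated with a labelled K4 kissing-loop RNA reporter in RNA-MaP buffer (100 mM Tris pH 7.5, 80 mM KCl, 4 mM MgCl2), without ligand or with the indicated ligand. Median apparent KD per design.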

[1] = input ligand: theophylline 20 uM
[2] = input ligand: tryptophan 2.4 mM
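Also: bound reporter read as fluorescence of individual clusters on recovered sequencing chips by microscopy, with normalized cluster intensities fitted with a binding model.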

| Sequence | apparent KD of K4 kissing-loop reporter (input ligand: FMN 200 uM) [nM] | apparent KD of K4 kissing-loop reporter (input ligand: arginine 13.2 mM) [nM] | apparent KD of K4 kissing-loop reporter (input ligand: none) [nM] | apparent KD of K4 kissing-loop reporter [1] [nM] | apparent KD of K4 kissing-loop reporter [2] [nM] |
| --- | --- | --- | --- | --- | --- |
| UAAGAAUAAGUAGCAGUGAUGUUGCUACUACGAGGACCGGUACGGCCGCCACUCGAAUACGAGUGGAAGUAGCAACUACCACUCA [(H1)-(H2)-(Trp1)-(Trp2)-(T)'-(H)'-(T)''_Design7] | 114 | 96.2 | 125 | 88 | 135 |
| UAAUAAAUUCCAGCGAUGUCACUCUUCGAAGGAGCGGACGAAAGUCCAGGUAGGUCGCGAAGAGUGAUGUUCUUCGCGGCGCUGG [Omei KL Arginine A Exc A v3] | 167 | 115 | 183 | 204 | 174 |
| UAAUUUAUGUCUUUAAUUUUAUUAUCAGAUACCAGUGAUUUAUGACACCCUUGGCAGCUGUAUUGAGUGAUGUUCUUAUAUUAAA [JR_Nu_ExcTheophyA_Sub023] | 111 | 111 | 118 | 190 | 72.5 |
| UACACGACUCGUGUAAACCGAGGUAACAGGCAGGAUAUGUAACGGAACAGAAGGGCCAUGUUGCGUGUCCAGUGAUGUUGGAUGC [Vetedile] | 170 | 231 | 270 | 272 | 246 |
| UACAGGGAUAGUGAUGUUAUCCCAUGUGAUACCAGUGUCAUCCAACACCCUUGGCAGCAUACGGGCAGUGAUGUUGUUCUUGGUA [#17 K4 Theophylline A Exclusion] | 91.7 | 75.4 | 91.6 | 77.5 | 84.3 |
| UACCUGCUGUCAGGAUAUGAGUGCAGUGAUGUUGCACUCAACGUAACCAUCUUGAAAUGCAAACACUCAGAAGGGACGCGCGAAG [Onaninso] | 151 | 99.8 | 122 | 91.8 | 102 |
| UACUAACGUUAAGGAUAUGCGUCGAUUACCGGUAAGUGAUGUUUAGCGCCCGGGCAACGGUGGGUCGCAGAAGGUAAACACAGUU [theeternabot_sameState_KL_FMN_B_19] | 689 | 551 | 795 | 640 | 610 |
| UACUGGGCGAGUGAUGUUUGCUCAUGUGAUACCAGUGCCAUCCAACACCCUUGGCAGCAUGCGGGCAGUGAUGUUGUCCAUGGAA [Exclusion Theophylline A GF10] | 629 | 597 | 667 | 645 | 640 |
| UACUUUAAUUUAUAACUAUCUUUAUUUUGUCAGGAUAUCGUAUUGUCGAGAAGGGACUCUCUCAAGUGAUGUUUGAGAAAUCGUU [JR_SSFMNA_Sub024] | 84.8 | 125 | 115 | 133 | 87.9 |
| UAGAGUCACAAGACAGUGAUGUUGUCUACUGAGGAUAUCAUGAAUAUGAGAAGGCAGUGUUGGAGGUCUCUAACAACAGACUCUG [FMN A SS t3] | 237 | 227 | 389 | 370 | 280 |
| UAGGGCAUCGCAGGAUAUCCUGCUUAACGUUGGAUUCCAGUGAUGUUGGAAAGCCGGCCUAGGGUAGGAGAAGGGCGGACUUGAA [Riteteve] | 160 | 167 | 167 | 187 | 242 |
| UAGUCCUAGUGAUCCUUAUCAAGUGGUGGGCGAGGACCGGUACGGCCGCCACUCGACUAUGCAGUGAUGUUGCAAUCCGGACAAU [Exclusion - Tryptophan A (Freestyle 13)] | 191 | 211 | 194 | 243 | 179 |
| UAGUUGCCGGUUUGUAGGCUUCGGCAGUGGGAGGAUAUGUUGACCGACAGAAGGCCCAGUGAUGUUGGGCGAUUGGCGGUGAGAU [Antebear] | 50 | 78.3 | 145 | – | 123 |
| UAUACUAGACAAGAGAGAAUUCUCUCAAGAGAGGAUAUCCGAAUUCGGAGAAGGCUCGCUAAGUGAUGUUUGGAAUAGUCUAGAA [AK4 SS FMN A] | 418 | 352 | 339 | 319 | 384 |
| UAUACUAGACAAGAGAGAAUUCUCUCAAGAGAGGAUAUCCGAAUUCGGAGAAGGCUCUCUAAGUGAUGUUUGGAAUAGUCUAGAA [AK5 SS FMN A] | 660 | 448 | 737 | 500 | 500 |
| UAUAGCGUCAGAAGGAGCGUGAGUAUAACAUGGCUGGAGUGAUGUUCCAGGAGUUAAUACUCACAGGUAGGUCGCUGACUCCUGG [Arg B SS t2] | 173 | 125 | 92.8 | 150 | 174 |
| UAUGAAGGUGGAGGAUAUUGAUUGAAUCUUGGUCAGGAGUGAUGUUCCGGGAAGCCUUGGAUUCAUCGAGAAGGCCAAGGAUAGU [Extra 3] | 123 | 344 | 344 | 330 | 327 |
| UAUGUACACGGGUAGUUGUACAUCGAGGAAGGAGCGUGCGCAGGCACAGGUAGGUCGCCUCAGCGCACGAGUGAUGUUCGUGGGC [Xexegeus] | 276 | 170 | 257 | 216 | 247 |
| UAUGUCAUUCUCGACGGAGUGAUGUUCCGACGAGGACCGGUACGGCCGCCACUCGGCAGAAUUGAGUCUGUGAUCCUAGAUCAAU [theeternabot_exclusion_KL_Trp_A_44] | 120 | 99.3 | 116 | 103 | 200 |
| UAUUGCCACAGAGUGAUGUUCUGGCCGGAUACCAGCAUGCAAUUAUGCCCUUGGCAGCCGGAUGCGCGUCCAGCCACCGGGCCUG [theeternabot_exclusion_KL_Theo_A_29] | 1510 | 783 | 1310 | 1280 | 1140 |
| UAUUUAGUGACGGCCGCCACUAUGGUGAUUUAUUUGUUUGAGUGAUGUUUUGAUGUUUGAUUUUGUAGGACCGGGUUAUGUGUUG [yyycmullin] | 891 | 688 | 818 | 752 | 595 |
| UCAUGUGCCAGUGAUGUUGGCGUACGUGAUACCAGACGAAUAAAAGUCCCUUGGCAGCACAAAUAAGCCAAGAUAGAUGAAUGAU [Exclusion Theophylline A GF 1] | 130 | 125 | 132 | 137 | 116 |

| Sequence | apparent KD of K4 kissing-loop reporter (input ligand: FMN 200 uM) [nM] | apparent KD of K4 kissing-loop reporter (input ligand: arginine 13.2 mM) [nM] | apparent KD of K4 kissing-loop reporter (input ligand: none) [nM] | apparent KD of K4 kissing-loop reporter [1] [nM] | apparent KD of K4 kissing-loop reporter [2] [nM] |
| --- | --- | --- | --- | --- | --- |
| UCCAAGGACGAACCGGUAUGAUCACCGGAUACCAGAGGCGAAAGCCUCCCUUGGCAGCCGAGUGUAGUGAUGUUACACUGGUUCU | 89.8 | 82.8 | 90.7 | 94.5 | 91.5 |
| UCGCAAAAGUCGGCCGCCACUCCGGGCCCUAUAAAUGGGCGCAGUGAUGUUGCGGCUAGGCCUCUGAGGACCGGGACUUUGUAGC [Tixelequ] | 221 | 119 | 58.9 | 142 | 156 |
| UCGUCUGUGUGAGGAUAUCCAAGCGAGCUGCGUACAGGUGCGGCGUUUGGAGUGAUGUUCCAGGCAGGAGAAGGCGCACGGGCUU [Esored] | 191 | 247 | 284 | 285 | 251 |
| UCUAAGGUCGAACCGGUAUGAUCACCGGAUACCAGAGGCGAAAGCCUCCCUUGGCAGCCGAGUGUAGUGAUGUUACACGGGUUCU | 166 | 147 | 175 | 310 | 166 |
| UCUGUUGUAUAUGAUACCAGCAGUGAGAGACAGGAAGUAUAGUGAUGUUAUAUGAGAGAAUGCCCUUGGCAGCGUGUGCGGGUGG [SSTheophylB.X] | 138 | 130 | 165 | 116 | 99.1 |
| UCUUGCGGCGCAGGAUAUCCGUCUGUCUCCUGCGUCAUUCUGCAGUGAUGUUGCAGGUGACGGAUAGGAGAAGGGCGAACGUACA [Diinonorce] | 133 | 104 | 124 | 117 | 112 |
| UCUUUAGUAUAUGAUACCAGCAGUGAGAGACAGGAAGUAUAGUGAUGUUAUAUGAGAGAAUGCCCUUGGCAGCGUGUGCGGUGGG [SSTheophylB.T] | 132 | 103 | 93.4 | 119 | 101 |
| UGACAUUGCUCAGAUACCAGACAUGAGCAUCAGCCAUGUGCCAAACGUACAAUAAUAAAUGUCCCUUGGCAGCUGAGCAAUGUCU [TheoBX 14] | 74.2 | 33.1 | 53.1 | 100 | 44.8 |
| UGACAUUGCUCAGAUACCAGACUUGAGGAACACCCAAGUGCCAAAUAAACGUACAUAAAAGUCCCUUGGCAGCUGAGCAAUGUCU [TheoBX 11] | 66 | 34.1 | 62.5 | 104 | 45.3 |
| UGACAUUGCUCAGAUACCAGACUUGAGGAUCACCCAAGUGCCAAAUAAACGUACAUAAAAGUCCCUUGGCAGCUGAGCAAUGUCU [TheoBX 11] | 72.9 | 46.3 | 41.3 | 99 | 33.4 |
| UGACGUUUGGGAAGGAGCGGAAUGUAAUACGGAACGCGUGGAGAUGCAGUGAUGUUGCAGAUCCAGGUAGGUCGCCCAAGGGACG [Zainat] | 91.4 | 72 | 76.2 | 84.9 | 94.2 |
| UGACUGGACUGAAGGAGCGCGAAAACUCCUAGUGAUGUUAGGAAAACGAGACAAAGUCUCGCGCAGGUAGGUCGCAGUCUAGUCU [ArgBS 20 #SwitchBubble #StaticStem] | 131 | 102 | 121 | 129 | 113 |
| UGACUGGACUGAAGGAGCGCUUAACUCCUAGUGAUGUUAGGAUAACGAGACAAAGUCUCGAAGCAGGUAGGUCGCAGUCUAGUCU | 157 | 104 | 118 | 126 | 128 |
| UGACUGGAUGGAAGGAGCGCUAAACUCCUAGUGAUGUUAGGGAAACGAGACAAAGUCUCGAAGCAGGUAGGUCGCCAUCUAGUCU [FiskerMod 14 - Jieux - Same State - Arginine B] | 176 | 134 | 158 | 146 | 155 |
| UGACUGGAUGGAAGGAGCGCUAAACUCCUAGUGAUGUUAGGGAAAUGAGACAAAGUCUCAAGGCAGGUAGGUCGCCAUCUAGUCU [FiskerMod 16 - Jieux - Same State - Arginine B] | 142 | 78.6 | 174 | 506 | 177 |
| UGACUGGAUGGAAGGAGCGCUAAACUCCUAGUGAUGUUAGGGAUACGAGGCAAAGCCUCGAGGCAGGUAGGUCGCCAUCUAGUCU [FiskerMod 24 - Jieux - Same State - Arginine B] | 167 | 129 | 124 | 147 | 136 |
| UGAUAAAGCAGUGAUGUUGCAAGUAAUGAUACCAGUUAAGAAGAGAACCCUUGGCAGCAUAAAGUGCGCUCUAAUGAGUGUGCUU [whbob_SS_Theo_A_w51] | 82.9 | 138 | 103 | 169 | 91.3 |
| UGAUACCAGACGGCCGCCACUAGGACCGGGAGUGAUGUUCCAAAAUUAAAAUACUCGGCCGCCACUAGGACCGGGUCUGGUAUCU [TrypBX 25 #DoubleAptamer #SwitchBubble] | 225 | 137 | 162 | 205 | 75.4 |
| UGAUACCAGACUGAUACCAGCCAGUGAUGUUGGCUAAGCCGAAGAGGUGUCAAAGACACCGGCCCUUGGCAGCAGUCUGGUAUCU [#06 K4 Theophylline B Exclusion] | 132 | 117 | 114 | 117 | 117 |
| UGAUAGGACAGAAGGAGCGGAAGUGAUGUUUCCAAUGGAUAAAAGGUGUCAAAGACACCCUUCCAGGUAGGUCGCUGUCCUAUCU [ArgBX 17 #Palindromic #SwitchBubble #StaticStem] | 146 | 160 | 148 | 141 | 132 |
| UGAUAGGACAGAAGGAGCGGGAGUGAUGUUCCCAAUAAAAGGUCUAGCAAAGCUAGACCCUCCCAGGUAGGUCGCUGUCCUAUCU [ArgBX 2 #Palindromic #SwitchBubble #StaticStem] | 234 | 265 | 268 | 245 | 219 |
